Results as given in US6869925 (Amgen, dated 2005).

B1: cathepsin G (protein)
chain: IIGGRESRPHSRPYMAYLQIQSPAGQSRCGGFLVREDFVLTAAHCWGSNINVTLGAHNIQRRENTQQHITARRAIRHPQYNQRTIQNDIMLLQLSRRVRRNRNVNPVALPRAQEGLRPGTLCTVAGWGRVSMRRGTDTLREVQLRVQRDRQCLRIFGSYDPRRQICVGDRRERKAAFKGDSGGPLLCNNVAHGIVSYGKSSGVPPEVFTRVSSFLPWIRTTMRS
B2: human neutrophil elastase (protein)
chain: IVGGRRARPHAWPFMVSLQLRGGHFCGATLIAPNFVMSAAHCVANVNVRAVRVVLGAHNLSRREPTRQVFAVQRIFENGYDPVNLLNDIVILQLNGSATINANVQVAQLPAQGRRLGNGVQCLAMGWGLLGRNRGIASVLQELNVTVVTSLCRRSNVCTLVRGRQAGVCFGDSGSPLVCNGLIHGIASFVRGGCASGLYPDAFAPVAQFVNWIDSIIQ

Tests used:
[1] = target: SLPI binding sites on U937 cells (human monocyte cell line; intact cells, PMA-induced cells or plasma membranes) (human); assay: competition with 125I-SLPI, intact U937 cells, competitor at 2750 nM
[2] = target: SLPI binding sites on U937 cells (human monocyte cell line; intact cells, PMA-induced cells or plasma membranes) (human); assay: competition with 125I-SLPI, intact U937 cells, competitor at 860 nM
[3] = target: SLPI binding sites on U937 cells (human monocyte cell line; intact cells, PMA-induced cells or plasma membranes) (human); assay: competition with 125I-SLPI, U937 plasma membranes, competitor at 83.9 nM
[4] = target: SLPI binding sites on U937 cells (human monocyte cell line; intact cells, PMA-induced cells or plasma membranes) (human); assay: competition with 125I-SLPI, intact U937 cells, competitor at 0 nM
[5] = target: SLPI binding sites on HuT78 cells (human T cell line) (human); assay: competition with 125I-SLPI, intact HuT78 cells, Kd by Cheng-Prusoff
[6] = target: SLPI binding sites on U937 cells (human monocyte cell line; intact cells, PMA-induced cells or plasma membranes) (human); assay: competition with 125I-SLPI, intact U937 cells, competitor at 0.078 nM
[7] = target: SLPI binding sites on U937 cells (human monocyte cell line; intact cells, PMA-induced cells or plasma membranes) (human); assay: competition with 125I-SLPI, U937 plasma membranes, competitor at 2.56 nM
[8] = target: SLPI binding sites on U937 cells (human monocyte cell line; intact cells, PMA-induced cells or plasma membranes) (human); assay: competition with 125I-SLPI, U937 plasma membranes, Kd by Cheng-Prusoff
[9] = target: SLPI binding sites on U937 cells (human monocyte cell line; intact cells, PMA-induced cells or plasma membranes) (human); assay: competition with 125I-SLPI, U937 plasma membranes, competitor at 0.800 nM
[10] = target: SLPI binding sites on U937 cells (human monocyte cell line; intact cells, PMA-induced cells or plasma membranes) (human); assay: competition with 125I-SLPI, intact U937 cells, competitor at 26 nM
[11] = target: SLPI binding sites on HuT78 cells (human T cell line) (human); assay: competition with 125I-SLPI, intact HuT78 cells, competitor at 0 nM
[12] = target: SLPI binding sites on HuT78 cells (human T cell line) (human); assay: competition with 125I-SLPI, intact HuT78 cells, competitor at 2.6 nM
[13] = target: SLPI binding sites on U937 cells (human monocyte cell line; intact cells, PMA-induced cells or plasma membranes) (human); assay: competition with 125I-SLPI, intact U937 cells, Kd by Cheng-Prusoff
[14] = target: SLPI binding sites on U937 cells (human monocyte cell line; intact cells, PMA-induced cells or plasma membranes) (human); assay: competition with 125I-SLPI, intact U937 cells, competitor at 0.024 nM
[15] = target: SLPI binding sites on U937 cells (human monocyte cell line; intact cells, PMA-induced cells or plasma membranes) (human); assay: competition with 125I-SLPI, U937 plasma membranes, competitor at 268 nM
[16] = target: SLPI binding sites on U937 cells (human monocyte cell line; intact cells, PMA-induced cells or plasma membranes) (human); assay: competition with 125I-SLPI, U937 plasma membranes, competitor at 0 nM
[17] = target: SLPI binding sites on U937 cells (human monocyte cell line; intact cells, PMA-induced cells or plasma membranes) (human); assay: competition with 125I-SLPI, U937 plasma membranes, competitor at 2750 nM
[18] = target: SLPI binding sites on HuT78 cells (human T cell line) (human); assay: competition with 125I-SLPI, intact HuT78 cells, competitor at 84 nM
[19] = target: SLPI binding sites on U937 cells (human monocyte cell line; intact cells, PMA-induced cells or plasma membranes) (human); assay: competition with 125I-SLPI, intact U937 cells, competitor at 0.80 nM
[20] = target: SLPI binding sites on HuT78 cells (human T cell line) (human); assay: competition with 125I-SLPI, intact HuT78 cells, competitor at 2750 nM
[21] = target: SLPI binding sites on U937 cells (human monocyte cell line; intact cells, PMA-induced cells or plasma membranes) (human); assay: competition with 125I-SLPI, intact U937 cells, competitor at 84 nM
[22] = target: SLPI binding sites on HuT78 cells (human T cell line) (human); assay: competition with 125I-SLPI, intact HuT78 cells, competitor at 8.2 nM
[23] = target: SLPI binding sites on U937 cells (human monocyte cell line; intact cells, PMA-induced cells or plasma membranes) (human); assay: competition with 125I-SLPI, intact U937 cells, competitor at 270 nM
[24] = target: SLPI binding sites on U937 cells (human monocyte cell line; intact cells, PMA-induced cells or plasma membranes) (human); assay: competition with 125I-SLPI, U937 plasma membranes, competitor at 8.20 nM
[25] = target: SLPI binding sites on U937 cells (human monocyte cell line; intact cells, PMA-induced cells or plasma membranes) (human); assay: competition with 125I-SLPI, intact U937 cells, competitor at 0.25 nM
[26] = target: SLPI binding sites on HuT78 cells (human T cell line) (human); assay: competition with 125I-SLPI, intact HuT78 cells, competitor at 0.80 nM
[27] = target: SLPI binding sites on U937 cells (human monocyte cell line; intact cells, PMA-induced cells or plasma membranes) (human); assay: competition with 125I-SLPI, intact U937 cells, competitor at 8.2 nM
[28] = target: SLPI binding sites on U937 cells (human monocyte cell line; intact cells, PMA-induced cells or plasma membranes) (human); assay: competition with 125I-SLPI, U937 plasma membranes, competitor at 8.20 nM (second GLY72 row)
[29] = target: SLPI binding sites on U937 cells (human monocyte cell line; intact cells, PMA-induced cells or plasma membranes) (human); assay: competition with 125I-SLPI, U937 plasma membranes, competitor at 2.56 nM (second GLY72 row)
[30] = target: SLPI binding sites on U937 cells (human monocyte cell line; intact cells, PMA-induced cells or plasma membranes) (human); assay: competition with 125I-SLPI, intact U937 cells, competitor at 2.6 nM
[31] = target: SLPI binding sites on U937 cells (human monocyte cell line; intact cells, PMA-induced cells or plasma membranes) (human); assay: competition with 125I-SLPI, U937 plasma membranes, competitor at 83.9 nM (second GLY72 row)
[32] = target: SLPI binding sites on U937 cells (human monocyte cell line; intact cells, PMA-induced cells or plasma membranes) (human); assay: competition with 125I-SLPI, U937 plasma membranes, competitor at 0.800 nM (second GLY72 row)
[33] = target: SLPI binding sites on U937 cells (human monocyte cell line; intact cells, PMA-induced cells or plasma membranes) (human); assay: competition with 125I-SLPI, U937 plasma membranes, competitor at 268 nM (second GLY72 row)
[34] = target: SLPI binding sites on U937 cells (human monocyte cell line; intact cells, PMA-induced cells or plasma membranes) (human); assay: competition with 125I-SLPI, U937 plasma membranes, competitor at 0 nM (second GLY72 row)
[35] = target: SLPI binding sites on U937 cells (human monocyte cell line; intact cells, PMA-induced cells or plasma membranes) (human); assay: competition with 125I-SLPI, U937 plasma membranes, competitor at 2750 nM (second GLY72 row)
[36] = target: HIV-1 envelope protein gp120

Molecule | % *SLPI BOUND [1] | CPM *SLPI BOUND [3] | % *SLPI BOUND [4] | Kd [5] | CPM *SLPI BOUND [7] | Kd [8] | CPM *SLPI BOUND [9] | % *SLPI BOUND [11] | % *SLPI BOUND [12] | Kd [13] | CPM *SLPI BOUND [15] | CPM *SLPI BOUND [16] | CPM *SLPI BOUND [17] | % *SLPI BOUND [18] | % *SLPI BOUND [19] | % *SLPI BOUND [20] | % *SLPI BOUND [21] | % *SLPI BOUND [22] | CPM *SLPI BOUND [24] | % *SLPI BOUND [26] | further results
SLPI mutein Gly 20 (from UniProt P03973 26-132) | 5% | 2490 cpm | 130% | 0.013 µM | 11400 cpm | 0.005 µM | 14900 cpm | 100% | 91% | 0.0035 µM | 1620 cpm | 18700 cpm | 1500 cpm | 50% | 91% | 7% | 11% | 103% | 7400 cpm | 109% | % *SLPI BOUND [2]: 5%; % *SLPI BOUND [6]: 117%; % *SLPI BOUND [10]: 28%; % *SLPI BOUND [14]: 110%; % *SLPI BOUND [23]: 6%; % *SLPI BOUND [25]: 110%; % *SLPI BOUND [27]: 49%
SLPI mutein Gly 72 (from UniProt P03973 26-132) | 28% | 3710 cpm | 131% | 0.2 µM | 12000 cpm | 0.005 µM | 14700 cpm | 100% | 105% | 0.4 µM | 2840 cpm | 18700 cpm | 1780 cpm | 110% | 116% | 28% | 101% | 85% | 7210 cpm | 108% | CPM *SLPI BOUND [28]: 7300 cpm; CPM *SLPI BOUND [29]: 11300 cpm; % *SLPI BOUND [2]: 53%; % *SLPI BOUND [6]: 118%; % *SLPI BOUND [30]: 115%; % *SLPI BOUND [10]: 112%; % *SLPI BOUND [14]: 116%; CPM *SLPI BOUND [31]: 3940 cpm; CPM *SLPI BOUND [32]: 14000 cpm; CPM *SLPI BOUND [33]: 2530 cpm; % *SLPI BOUND [23]: 75%; % *SLPI BOUND [25]: 120%; CPM *SLPI BOUND [34]: 18700 cpm; CPM *SLPI BOUND [35]: 1430 cpm; % *SLPI BOUND [27]: 117%
SLPI mutein Val 72 (from UniProt P03973 26-132) | 8% | 3380 cpm | 95% | 0.009 µM | 11600 cpm | 0.019 µM | 14000 cpm | 100% | 96% | 0.03 µM | 1740 cpm | 18700 cpm | 923 cpm | 43% | 90% | 14% | 48% | 81% | 9240 cpm | 93% | % *SLPI BOUND [30]: 80%; % *SLPI BOUND [27]: 78%
SLPI mutein Lys 72 (from UniProt P03973 26-132) | 4% | 3500 cpm | 117% | 0.2 µM | 12200 cpm | 0.005 µM | 14200 cpm | 100% | 118% | 0.0025 µM | 3240 cpm | 18700 cpm | 5010 cpm | 86% | 86% | 34% | 10% | 116% | 7620 cpm | 105% | % *SLPI BOUND [2]: 5%; % *SLPI BOUND [6]: 113%; % *SLPI BOUND [30]: 71%; % *SLPI BOUND [10]: 21%; % *SLPI BOUND [14]: 116%; % *SLPI BOUND [23]: 6%; % *SLPI BOUND [25]: 103%; % *SLPI BOUND [27]: 39%
lysozyme (enzyme) | – | 15500 cpm | – | – | 14700 cpm | – | 15200 cpm | – | – | – | 14900 cpm | 18700 cpm | 15900 cpm | – | – | – | – | – | 15000 cpm | – | –
bFGF (from UniProt P09038 143-288) (ligand) | – | 15000 cpm | – | – | 13500 cpm | – | 14000 cpm | – | – | – | 14400 cpm | 18700 cpm | 14700 cpm | – | – | – | – | – | 14500 cpm | – | –
alpha-1 protease inhibitor (from UniProt P01009 25-418) | – | – | – | – | – | 1 µM | – | – | – | – | – | – | – | – | – | – | – | – | – | – | –
HIV-1 envelope protein gp120 | – | – | – | – | – | 0.4 µM | – | – | – | – | – | – | – | – | – | – | – | – | – | – | –
B1 | – | – | – | – | – | – | – | – | – | – | – | – | – | – | – | – | – | – | – | – | proteolytic cleavage of gp120 (Western blot) [36]: gp120 (400 nM) was also incubated at 37° for 30 min, with 10 nM cathepsin G and yielded different bands
B2 | – | – | – | – | – | – | – | – | – | – | – | – | – | – | – | – | – | – | – | – | proteolytic cleavage of gp120 (Western blot, reducing SDS-PAGE) [36]: Incubation at 37° for 30 min, with 10 nM HNE yielded primarily 2 bands on Western blot
